Laboratory results taken from patent US20080227698A1, “OLIGOPEPTIDES FOR TREATMENT OF OSTEOPOROSIS AND OTHER BONE DISEASES AND METHODS THEREOF” (Washington University, priority 2005, published 2008).

Experiments:
[1] = target: T1, other members of the LDLR family (LDLR, LRP, LRP1 B, VLDLR, apoER2) (Homo sapiens, UniProt Q07954); assay: ^125I-Mesd binding to cells expressing other members of the LDLR family; settings: ^125I-Mesd 5 nM, 4 hours at 4° C.
T1 construct: expressed in transfected cells; host or cells: HEK293 (transient HA-LDLR); also endogenous receptors in MEF lines, MCF-7, U87 and SMC
T1 sequence (Q07954 20-4544): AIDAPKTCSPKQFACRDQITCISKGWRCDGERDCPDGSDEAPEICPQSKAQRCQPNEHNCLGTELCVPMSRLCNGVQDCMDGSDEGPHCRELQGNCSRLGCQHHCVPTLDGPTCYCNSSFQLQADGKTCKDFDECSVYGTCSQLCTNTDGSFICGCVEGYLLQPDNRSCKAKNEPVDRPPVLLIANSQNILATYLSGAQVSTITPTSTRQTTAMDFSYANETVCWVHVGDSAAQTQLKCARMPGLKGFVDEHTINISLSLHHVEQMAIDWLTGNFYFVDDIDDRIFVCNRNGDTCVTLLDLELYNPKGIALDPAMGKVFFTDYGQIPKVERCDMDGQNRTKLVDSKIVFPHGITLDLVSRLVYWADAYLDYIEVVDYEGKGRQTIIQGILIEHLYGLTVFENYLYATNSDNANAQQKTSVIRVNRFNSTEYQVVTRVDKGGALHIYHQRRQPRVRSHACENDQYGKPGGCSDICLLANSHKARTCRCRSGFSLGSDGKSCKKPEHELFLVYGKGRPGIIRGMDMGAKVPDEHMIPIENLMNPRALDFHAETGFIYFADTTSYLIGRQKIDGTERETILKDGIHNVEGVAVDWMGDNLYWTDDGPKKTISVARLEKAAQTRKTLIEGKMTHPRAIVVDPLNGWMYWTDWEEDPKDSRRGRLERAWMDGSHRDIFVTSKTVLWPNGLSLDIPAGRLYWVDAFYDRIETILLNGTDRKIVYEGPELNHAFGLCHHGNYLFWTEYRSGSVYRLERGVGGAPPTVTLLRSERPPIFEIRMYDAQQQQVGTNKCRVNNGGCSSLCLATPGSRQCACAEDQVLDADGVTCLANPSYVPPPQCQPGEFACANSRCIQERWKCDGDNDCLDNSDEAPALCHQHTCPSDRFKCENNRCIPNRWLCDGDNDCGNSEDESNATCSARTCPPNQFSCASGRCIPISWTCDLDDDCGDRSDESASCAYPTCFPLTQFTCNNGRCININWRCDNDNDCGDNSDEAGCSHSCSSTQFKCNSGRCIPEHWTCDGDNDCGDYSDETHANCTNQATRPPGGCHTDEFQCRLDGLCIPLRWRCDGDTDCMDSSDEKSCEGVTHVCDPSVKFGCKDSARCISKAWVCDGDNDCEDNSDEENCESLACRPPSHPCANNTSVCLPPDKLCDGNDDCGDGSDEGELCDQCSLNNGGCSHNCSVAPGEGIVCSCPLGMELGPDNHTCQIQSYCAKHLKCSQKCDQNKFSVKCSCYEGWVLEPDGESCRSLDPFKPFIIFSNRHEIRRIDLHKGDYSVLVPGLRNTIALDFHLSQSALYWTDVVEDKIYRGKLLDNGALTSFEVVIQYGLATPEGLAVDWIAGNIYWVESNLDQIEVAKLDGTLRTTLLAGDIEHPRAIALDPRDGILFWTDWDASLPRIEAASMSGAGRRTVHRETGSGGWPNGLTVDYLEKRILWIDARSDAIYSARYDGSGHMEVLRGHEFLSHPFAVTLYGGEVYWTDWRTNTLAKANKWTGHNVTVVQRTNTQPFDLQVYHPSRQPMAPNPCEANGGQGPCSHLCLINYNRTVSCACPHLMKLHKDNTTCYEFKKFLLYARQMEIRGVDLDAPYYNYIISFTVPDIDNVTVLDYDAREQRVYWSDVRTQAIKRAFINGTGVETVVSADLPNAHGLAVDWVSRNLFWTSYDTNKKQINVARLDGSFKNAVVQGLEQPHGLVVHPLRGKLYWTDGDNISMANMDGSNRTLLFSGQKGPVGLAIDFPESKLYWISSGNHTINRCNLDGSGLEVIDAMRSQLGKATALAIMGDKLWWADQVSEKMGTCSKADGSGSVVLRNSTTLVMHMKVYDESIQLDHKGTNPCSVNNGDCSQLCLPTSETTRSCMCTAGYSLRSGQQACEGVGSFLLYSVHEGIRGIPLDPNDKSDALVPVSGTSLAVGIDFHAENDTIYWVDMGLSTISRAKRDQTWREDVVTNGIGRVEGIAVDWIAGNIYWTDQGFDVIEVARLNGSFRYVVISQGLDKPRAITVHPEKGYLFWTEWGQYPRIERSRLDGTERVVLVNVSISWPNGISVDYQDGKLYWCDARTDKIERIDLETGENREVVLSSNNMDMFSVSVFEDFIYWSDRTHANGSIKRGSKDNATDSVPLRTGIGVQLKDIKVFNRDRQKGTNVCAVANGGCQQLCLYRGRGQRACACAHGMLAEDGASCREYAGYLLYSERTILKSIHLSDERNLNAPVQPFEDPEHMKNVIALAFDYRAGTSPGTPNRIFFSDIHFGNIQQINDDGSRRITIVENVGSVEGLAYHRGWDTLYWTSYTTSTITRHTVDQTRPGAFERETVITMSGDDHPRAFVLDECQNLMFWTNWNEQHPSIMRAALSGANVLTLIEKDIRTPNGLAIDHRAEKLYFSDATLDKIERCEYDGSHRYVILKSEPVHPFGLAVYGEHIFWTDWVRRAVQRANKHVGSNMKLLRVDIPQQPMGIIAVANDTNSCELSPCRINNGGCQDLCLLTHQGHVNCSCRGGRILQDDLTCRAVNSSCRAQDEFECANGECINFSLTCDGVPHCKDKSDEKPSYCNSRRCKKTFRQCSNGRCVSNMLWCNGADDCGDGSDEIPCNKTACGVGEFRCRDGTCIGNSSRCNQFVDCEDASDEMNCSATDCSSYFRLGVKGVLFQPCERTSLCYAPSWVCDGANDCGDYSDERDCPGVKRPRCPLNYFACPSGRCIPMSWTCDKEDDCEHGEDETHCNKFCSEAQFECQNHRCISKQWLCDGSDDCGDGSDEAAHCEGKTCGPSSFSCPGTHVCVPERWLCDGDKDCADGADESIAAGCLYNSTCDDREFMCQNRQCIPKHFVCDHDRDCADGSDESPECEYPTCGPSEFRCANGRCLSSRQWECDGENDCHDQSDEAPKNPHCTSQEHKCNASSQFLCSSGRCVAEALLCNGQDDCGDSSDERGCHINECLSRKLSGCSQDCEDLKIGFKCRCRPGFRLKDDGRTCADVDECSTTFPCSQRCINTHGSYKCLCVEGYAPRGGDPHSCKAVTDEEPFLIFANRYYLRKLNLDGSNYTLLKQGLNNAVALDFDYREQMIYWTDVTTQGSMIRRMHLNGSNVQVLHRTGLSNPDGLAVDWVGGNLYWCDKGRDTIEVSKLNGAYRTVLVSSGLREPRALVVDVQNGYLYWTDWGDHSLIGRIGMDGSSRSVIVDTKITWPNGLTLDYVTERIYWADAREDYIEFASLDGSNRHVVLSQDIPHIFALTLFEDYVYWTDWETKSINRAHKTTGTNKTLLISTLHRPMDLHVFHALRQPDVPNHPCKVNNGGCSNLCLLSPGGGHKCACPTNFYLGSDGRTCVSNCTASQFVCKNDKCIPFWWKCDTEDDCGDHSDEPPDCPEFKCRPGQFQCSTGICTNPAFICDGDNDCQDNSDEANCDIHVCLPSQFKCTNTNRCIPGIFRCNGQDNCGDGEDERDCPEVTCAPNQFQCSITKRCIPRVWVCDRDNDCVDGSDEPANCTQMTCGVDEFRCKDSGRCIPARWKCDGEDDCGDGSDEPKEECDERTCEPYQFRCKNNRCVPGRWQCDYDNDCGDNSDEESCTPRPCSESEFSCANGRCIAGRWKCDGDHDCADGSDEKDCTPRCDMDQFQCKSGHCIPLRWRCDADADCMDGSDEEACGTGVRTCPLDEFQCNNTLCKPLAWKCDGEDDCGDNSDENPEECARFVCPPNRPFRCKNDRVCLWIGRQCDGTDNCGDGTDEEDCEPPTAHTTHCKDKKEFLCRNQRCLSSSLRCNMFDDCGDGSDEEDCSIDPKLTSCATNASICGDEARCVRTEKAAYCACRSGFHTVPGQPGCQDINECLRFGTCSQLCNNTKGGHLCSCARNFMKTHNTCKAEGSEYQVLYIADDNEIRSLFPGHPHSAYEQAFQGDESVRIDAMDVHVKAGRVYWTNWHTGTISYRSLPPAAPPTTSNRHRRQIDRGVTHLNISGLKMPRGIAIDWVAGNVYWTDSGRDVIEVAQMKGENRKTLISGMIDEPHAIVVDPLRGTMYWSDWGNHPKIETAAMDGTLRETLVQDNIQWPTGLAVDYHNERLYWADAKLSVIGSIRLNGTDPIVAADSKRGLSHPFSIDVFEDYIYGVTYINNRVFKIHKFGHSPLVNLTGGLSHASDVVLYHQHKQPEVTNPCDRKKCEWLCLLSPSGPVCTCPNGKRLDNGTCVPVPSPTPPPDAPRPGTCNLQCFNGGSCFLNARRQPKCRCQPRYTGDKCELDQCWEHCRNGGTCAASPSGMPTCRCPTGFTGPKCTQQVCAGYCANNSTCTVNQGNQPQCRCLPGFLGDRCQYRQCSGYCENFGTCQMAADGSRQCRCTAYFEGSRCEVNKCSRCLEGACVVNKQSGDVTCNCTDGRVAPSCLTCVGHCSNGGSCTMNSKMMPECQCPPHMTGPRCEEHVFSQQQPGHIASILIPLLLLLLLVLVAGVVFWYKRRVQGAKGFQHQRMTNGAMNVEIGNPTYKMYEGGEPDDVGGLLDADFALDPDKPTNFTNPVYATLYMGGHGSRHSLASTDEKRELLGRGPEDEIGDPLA
Protocol: (§1) Cells (2×10^5) were seeded into 12-well dishes 1 day prior to assay. Ligand-binding buffer (minimal Eagle's medium containing 0.6% BSA with a different concentration of radioligand, 0.6 ml/well) was added to cell monolayers, in the absence or the presence of 500 nM unlabeled RAP or 500 nM unlabeled Mesd, followed with incubation for 0-4 hours at 4° C. Thereafter, overlying buffer containing unbound ligand was removed, and cell monolayers were washed and lysed in low-SDS lysis buffer (62.5 mM Tris-HCl pH 6.8, 0.2% SDS, 10% v/glycerol) and counted.
(§2) To determine whether Mesd binds to other members of the LDLR family, ^125I-Mesd binding analysis was performed with four groups of cells expressing different members of the LDLR family (FIG. 2). In the first experiment, HEK293 cells were transiently transfected with cDNAs for the LDLR, LRP5, LRP6 or empty pcDNA3 vector. […]

[2] = test system: other members of the LDLR family (LDLR, LRP, LRP1 B, VLDLR, apoER2); assay: as above; parameters: species or system human; settings: ^125I-Mesd 5 nM, 4 hours at 4° C., HEK293, CHO, MEF cells
Protocol: as §1, §2

LRP5 = LRP5 (Homo sapiens, UniProt O75197); assay: ^125I-DKK1 binding to LRP5, competition by Mesd or oligopeptide (FIG. 10B)
Protocol: In order to investigate the binding of Mesd polypeptide and an Mesd oligopeptide to either LRP5 or LRP6, binding assays were performed using ^125I-Mesd or ^125I-DKK1 (FIG. 10).

LRP6 = LRP6 (Homo sapiens, UniProt O75581); assay: ^125I-DKK1 binding to LRP6-transduced HT1080 cells; parameters: plasmid pCS-Myc-hLRP6 containing the full-length human LRP6 cDNA; HA; expressed in transfected cells; host or cells: human HT1080 cells, stably transduced (pLNCX2 retroviral vector); settings: 500 nM competitor, ^125I-DKK1 5 nM, 3 hours at 4° C.
Protocol: as §1
RAP is a receptor antagonist for members of the LDLR family, and is able to inhibit the binding of most known ligands of the LDLR family members. […] In these experiments, Serum-free conditioned medium was harvested from HEK293 cells transiently transfected with cDNA for human Myc-DKK1 and allowed to bind to LRP6-transduced HT1080 cells (B,C) and control cells (A) in the absence (A,B) or presence (C) of 1 μM Mesd. Cell-surface-bound Myc-tagged DKK proteins were fixed and detected by immunofluorescence staining with anti-Myc antibody. […] Binding of 125I-DKK1 (5 nM) to LRP6-transduced HT1080 cells or the control cells was carried out for 3 hours at 4° C. in the absence (total) or presence of 500 nM RAP or 500 nM Mesd. […] LRP6-mediated 125I-Mesd (5 nM) degradation was carried out for 4 hours at 37° C. in the absence or presence of 500 nM RAP or 500 nM Mesd. Values are the means of triple determinations with the s.d. indicated by error bars. Bar, 10 μm.

Specific Mesd binding to U87 or SMC (express abundant LRP) [1]: minimal | Reduction in binding of ^125I-DKK1 to LRP5 (LRP5): small but significant reduction | Effect of excess unlabeled competitor on increased DKK1 binding (LRP6): abolished
B1: Mesd: recombinant wild-type mouse Mesd, polyhistidine tail at the N-terminus, lacks the signal peptide, expressed in E. coli (protein)
chain: ADTPGEATPPPRKKKDIRDYNDADMARLLEQWEKDDDIEEGDLPEHKRPSAPIDFSKLDPGKPESILKMTKKGKTLMMFVTVSGNPTEKETEEITSLWQGSLFNANYDVQRFIVGSDRAIFMLRDGSYAWEIKDFLVSQDRCAEVTLEGQMYPGKGGGSKEKNKTKPEKAKKKEGDRKPRASKEDNRAGSRREDL
modifications: left off: small tags and cut ends
notes: recombinant wild-type mouse Mesd, polyhistidine tail at the N-terminus, lacks the signal peptide, expressed in E. coli
^125I-Mesd binding to other members of the LDLR family [2]: not significantly
